The values below come from article PMC7278938, “The MKK-Dependent Phosphorylation of p38α Is Augmented by Arginine Methylation on Arg49/Arg149 during Erythroid Differentiation” (International Journal of Molecular Sciences, 2020).

Experiment [1] addresses Flag-p38α R49/149K mutant (UniProt Q16539 1-360, R49/149K | R49/149K). The experiment is described as follows: cell-based or functional assay.
For experiment [2], the target named is T1, Flag-p38α wild type (UniProt Q16539 1-360). The experiment is described as follows: cell-based or functional assay.
The target of experiment [3] is T1, Flag-p38α wild type. The experiment is described as follows: co-IP; Flag-p38α immunoprecipitated with anti-Flag antibodies and protein G agarose at 4 °C from lysates (1 mg) of p38α-knockdown K562 cells after AraC (1 μM, 5 h); lysis buffer 150 mM NaCl, 20 mM Tris pH 7.4, 0.2% Triton X-100; partners detected by Western blot and quantified; in Figure 6D with or without HA-PRMT1. Conditions: partners not purified.

T1 sequence (Q16539 whole entry): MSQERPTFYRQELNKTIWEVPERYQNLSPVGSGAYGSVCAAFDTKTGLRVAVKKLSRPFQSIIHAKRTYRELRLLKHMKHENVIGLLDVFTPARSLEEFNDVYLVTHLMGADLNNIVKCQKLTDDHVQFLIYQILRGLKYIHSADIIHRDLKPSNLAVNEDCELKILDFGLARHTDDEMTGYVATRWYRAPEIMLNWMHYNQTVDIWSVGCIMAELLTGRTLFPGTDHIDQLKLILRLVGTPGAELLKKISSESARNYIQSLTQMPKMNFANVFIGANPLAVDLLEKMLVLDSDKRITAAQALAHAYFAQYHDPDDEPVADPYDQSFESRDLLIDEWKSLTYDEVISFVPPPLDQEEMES
Chain of Flag-p38α R49/149K mutant (Q16539 other isoform, or with tags, fused parts or gaps R49/149K | R49/149K | R49/149K | R49/149K | mutant): as the sequence (Q16539 whole entry) above, with R49K, R149K counted along it

B1: MAPK kinase 3 (MKK3) (enzyme, human (endogenous in K562), UniProt P46734 1-347, looked up)
chain: MESPASSQPASMPQSKGKSKRKKDLRISCMSKPPAPNPTPPRNLDSRTFITIGDRNFEVEADDLVTISELGRGAYGVVEKVRHAQSGTIMAVKRIRATVNSQEQKRLLMDLDINMRTVDCFYTVTFYGALFREGDVWICMELMDTSLDKFYRKVLDKNMTIPEDILGEIAVSIVRALEHLHSKLSVIHRDVKPSNVLINKEGHVKMCDFGISGYLVDSVAKTMDAGCKPYMAPERINPELNQKGYNVKSDVWSLGITMIEMAILRFPYESWGTPFQQLKQVVEEPSPQLPADRFSPEFVDFTAQCLRKNPAERMSYLELMEHPFFTLHKTKKTDIAAFVKEILGEDS
notes: MKK3 (MAPK kinase 3), endogenous in human K562 cells, detected with anti-MKK3 (Cell Signaling #5674); source: endogenous, K562 lysate
On to B1, for which the “sorbitol (150 mM)-induced activation phosphorylation of Flag-p38α at 0.5 h (Western blot with anti-phospho-p38)” value was approximately 2 fold in experiment [1] and approximately 4 fold with Flag-p38α wild type [2]. Further, in the experiment with Flag-p38α wild type [3], the “fold change of the interaction with HA-PRMT1 against without” value is 1.7 fold.
